Where a chain is given by its changes, count along the chain named.
T1: Human LAG-3 on cells (human LAG-3 expressing EL4 cells; activated human CD3+ T cells) (human, UniProt P18627 23-525)
T1 construct: whole, on cells; also called LAG-3 positive T cells
T1 sequence (looked up): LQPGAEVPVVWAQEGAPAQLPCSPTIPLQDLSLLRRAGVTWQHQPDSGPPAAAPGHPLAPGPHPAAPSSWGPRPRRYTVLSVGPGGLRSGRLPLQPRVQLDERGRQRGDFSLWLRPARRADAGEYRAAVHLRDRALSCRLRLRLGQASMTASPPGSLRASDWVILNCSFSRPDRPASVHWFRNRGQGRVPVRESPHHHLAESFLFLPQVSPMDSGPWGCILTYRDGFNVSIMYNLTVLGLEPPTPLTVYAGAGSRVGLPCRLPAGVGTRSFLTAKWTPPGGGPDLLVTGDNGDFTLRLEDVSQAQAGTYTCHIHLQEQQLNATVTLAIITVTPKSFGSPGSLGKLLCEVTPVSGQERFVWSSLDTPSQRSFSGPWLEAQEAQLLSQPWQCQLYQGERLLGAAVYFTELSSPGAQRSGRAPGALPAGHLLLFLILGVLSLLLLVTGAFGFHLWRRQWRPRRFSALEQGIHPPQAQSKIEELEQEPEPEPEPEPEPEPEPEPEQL

T2: recombinant soluble human FcγRIIa H131 (human, UniProt P12318 36-218, limits assumed)
T2 sequence (looked up): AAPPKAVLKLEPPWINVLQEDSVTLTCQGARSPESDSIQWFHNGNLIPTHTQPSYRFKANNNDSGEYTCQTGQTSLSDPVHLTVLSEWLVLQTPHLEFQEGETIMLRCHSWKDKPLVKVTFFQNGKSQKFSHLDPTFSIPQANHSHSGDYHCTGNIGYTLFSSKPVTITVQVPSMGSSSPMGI

T3: recombinant soluble human FcγRIIa R131 (human, UniProt P12318 36-218, limits assumed)
T3 sequence (looked up): T2 sequence (looked up) with H132R

B1: IMP731 (antibody, human IgG1, kappa)
heavy: not shown
light: DIVMTQSPSSLAVSVGQKVTMSCKSSQSLLNGSNQKNYLAWYQQKPGQSPKLLVYFASTRDSGVPDRFIGSGSGTDFTLTISSVQAEDLADYFCLQHFGTPPTFGGGTKLEIKRTVAAPSVFIFPPSDEQLKSGTASVVCLLNNFYPREAKVQWKVDNALQSGNSQESVTEQDSKDSTYSLSSTLTLSKADYEKHKVYACEVTHQGLSSPVTKSFNRGEC
notes: Chimeric (murine variable domains, human IgG1/kappa constant regions); also called A9H12; chimeric antibody IMP731
B2: H5L7BW (antibody, human IgG1, kappa)
heavy: not shown
light: DIQMTQSPSSLSASVGDRVTITCKSSQSLLNPSNQKNYLAWYQQKPGKAPKLLVYFASTRDSGVPSRFSGSGSGTDFTLTISSLQPEDFATYYCLQHFGTPPTFGQGTKLEIKRTVAAPSVFIFPPSDEQLKSGTASVVCLLNNFYPREAKVQWKVDNALQSGNSQESVTEQDSKDSTYSLSSTLTLSKADYEKHKVYACEVTHQGLSSPVTKSFNRGEC
modifications: afucosylated: no fucose on the core carbohydrate structure attached to Asn297
notes: Same plasmids as H5L7, expressed in the BioWa POTELLIGENT (FUT8 knock-out CHO) cell line; also called afucosylated antibody H5L7BW; afucosylated H5L7
B3: H5L7 (antibody, human IgG1, kappa)
heavy: not shown
light: B2 light
notes: Humanised IgG1/kappa of A9H12 (IMP731); also called fucosylated H5L7; non-ADCC enhanced variant H5L7

The binders below were run against T1, Human LAG-3 on cells (human LAG-3 …) (assay: flow cytometry (MFI), Alexa647-conjugated antibody titrated on human LAG-3 expressing EL4 cells; direct binding curve, half-maximal value labelled IC50 in the table under the graph; unit taken from the concentration axis).
Procedure: Human LAG-3 expressing EL4 cells were incubated with either IMP731, H5L7 or H5L7BW Alexa647-conjugated antibodies at varying concentrations of up to 50 μg/ml for 30 minutes at room temperature. Cells were washed with FACS buffer (PBS+0.5% BSA) to remove unbound antibody.
(§1) EL4 cells and CD3⁺ T cells were analysed by FACS using a Beckman Coulter FC 500 flow cytometer. FACS raw data were analysed using CXP Analysis software (Beckman Coulter). The data was initially plotted on a forward-scatter versus side-scatter plot and the population of cells of interest were gated. This gated population was then plotted as a histogram displaying fluorescence intensity and the mean fluorescence intensity (MFI) calculated. MFI values were then plotted in GraphPad Prism 5 software to generate dose response curves.

IC50 [ng/mL] | Binder
13 | B1
16.9 | B2
14.2 | B3

The binders below were run against T4, recombinant soluble human FcγRI (human, UniProt P12314 16-288, limits assumed) (assay: SPR ProteOn XPR36, His-tagged receptor captured on anti-poly-histidine IgG, antibody analyte 8-2048 nM, equilibrium model, 25 C).
T4 construct: also called CD64
Procedure: (§2) A goat anti-poly-histidine IgG was immobilised on a GLM biosensor chip by primary amine coupling. This surface was used as a capture surface for the poly-histidine tagged human Fc gamma receptors. […] The goat anti-poly-histidine IgG surface was regenerated with 100 mM phosphoric acid between interactions. The run was carried out on the ProteOn XPR36 Protein Array Interaction System at 25° C. and using HBS-EP as running buffer. Data was analysed for each receptor separately, setting a global R-max and using the Equilibrium Model inherent to the ProteOn's analysis software. Control molecules were run at the beginning and the end of the set of samples to be tested to ensure comparability of results. Data was compared from two experiments and hybrid control antibodies used as controls between experiments.

T4 sequence (P12314 16-288 limits assumed): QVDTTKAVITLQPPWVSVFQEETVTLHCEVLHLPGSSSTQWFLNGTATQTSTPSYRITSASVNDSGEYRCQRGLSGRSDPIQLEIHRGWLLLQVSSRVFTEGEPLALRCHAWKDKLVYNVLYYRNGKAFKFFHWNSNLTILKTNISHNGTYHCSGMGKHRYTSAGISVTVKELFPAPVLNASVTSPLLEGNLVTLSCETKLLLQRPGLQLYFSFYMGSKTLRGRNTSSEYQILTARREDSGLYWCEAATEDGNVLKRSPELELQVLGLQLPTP

Kd [nM] | Binder
39 | B1
26.4 | B2
26.3 | B3

What follows are binders tested against T2, recombinant soluble human FcγRIIa H131 in the same assay as above.
Procedure: as §2

Kd [nM] | Binder
1280 | B1
1430 | B2
638 | B3

The binders below were run against T5, recombinant soluble human FcγRIIIa V158 (human, UniProt P08637 17-208) in the same assay as above.
T5 construct: also called FcγRIIIa valine V158; CD16
Procedure: as §2

T5 sequence (P08637 17-208 F176V limits assumed): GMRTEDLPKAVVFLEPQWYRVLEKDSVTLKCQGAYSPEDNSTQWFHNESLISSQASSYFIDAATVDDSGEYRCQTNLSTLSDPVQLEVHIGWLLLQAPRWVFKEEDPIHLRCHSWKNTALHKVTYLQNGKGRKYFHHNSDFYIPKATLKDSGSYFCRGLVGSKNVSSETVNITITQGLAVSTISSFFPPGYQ

Kd [nM] | Binder
406 | B1
21.8 | B2
236 | B3

These binders were tested against T3, recombinant soluble human FcγRIIa R131 in the same assay as above.
Procedure: as §2

Kd [nM] | Binder
2620 | B1
1490 | B2
792 | B3

Each binder was assayed against T6, recombinant soluble human FcγRIIIa F158 (human, UniProt P08637 17-208) in the same assay as above.
T6 construct: also called FcγRIIIa phenylalanine F158; CD16
Procedure: as §2

T6 sequence (P08637 17-208 limits assumed): as the sequence (P08637 17-208 F176V limits assumed) above, with V160F counted along it

Kd [nM] | Binder
1750 | B1
81.1 | B2
752 | B3

Each binder was assayed against T1, Human LAG-3 on cells (human LAG-3 …) (assay: flow cytometry (MFI), Alexa647-conjugated antibody titrated on activated human CD3+ T cells; direct binding curve, half-maximal value labelled IC50 in the table under the graph; unit taken from the concentration axis).
Procedure: CD3⁺ T cells were prepared from PBMCs by negative selection using Untouched Human T cell Dynal beads. CD3⁺ T cells were activated by incubation with immobilised anti-CD3 and anti-CD28 and soluble recombinant human IL-12 for 3 days at 37° C. Activated cells were incubated with Alexa 647-conjugated antibodies of varying concentrations up to 3 μg/ml for 30 minutes at room temperature. Cells were washed with FACS buffer (PBS+0.5% BSA).
as §1

IC50 [ng/mL] | Binder
2.14 | B1
3.07 | B2
3.06 | B3
